The data set concerns the target HER2 (His-tagged HER2 protein) (UniProt P04626 23-652). As to the kind of experiment: Ni-NTA bead pull-down with RT-qPCR quantification; 1.5 mM Mg2+; 3 nM HER2, aptamer 0-100 nM; 30 mM Tris-HCl, 150 mM NaCl, 1.5 mM MgCl2, pH not stated, 30 min at room temperature (bead assay); cells 37 C, 30 min to 4 h. The following applies: tags: His.

B1: HER2 RNA aptamer (2'-F pyrimidine) (XNA)
RNA: AGCCGCGAGGGGAGGGAUAGGGUAGGGCGCGGCU
modifications: 2'-fluoro C and U (all pyrimidines)
Broadly, the Kd is the equilibrium constant for the complex coming apart. Molecule B1 had a dissociation constant (Kd) of 16.5 ± 4.4 nM.
